We go through 3 molecules from US20240270866A1 (Alector, published 2024).

Experiment [1] concerns the target T1, human SIRPA overexpressed on CHO cells (human, UniProt P78324 31-504).
T1 construct: also called CHO-huSIRPA
Kind of experiment: flow, CHO-huSIRPA.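 Note: Anti-SIRPA antibodies applied at 1 µg/mL for 1 h on ice, binding read by flow cytometry using a PE-labelled secondary antibody.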
Protocol: (§1) Initial characterization of anti-SIRPA antibodies of the present disclosure involved determining their ability to bind cell lines overexpressing human or mouse SIRPA. Cells were harvested, plated at 10⁶/ml in a 96 well plate, washed, and incubated in 100 ul PBS containing 1 ug/ml Mab for 1 hour in ice. Cells were then washed twice and incubated in 100 ul PBS containing 5 ug/ml PE-conjugated secondary antibody for 30 minutes in ice. Cells were washed twice in cold PBS and acquired on a BD FACS Canto. Data analysis and calculation of mean fluorescence intensity (MFI) values or % positive cells was performed with FlowJo® (TreeStar) software version 10.0.7.

Experiment [2] has as its target T2, mouse SIRPA overexpressed on CHO cells (mouse, UniProt P97797 32-513).
T2 construct: also called CHO-muSIRPA
T2 sequence: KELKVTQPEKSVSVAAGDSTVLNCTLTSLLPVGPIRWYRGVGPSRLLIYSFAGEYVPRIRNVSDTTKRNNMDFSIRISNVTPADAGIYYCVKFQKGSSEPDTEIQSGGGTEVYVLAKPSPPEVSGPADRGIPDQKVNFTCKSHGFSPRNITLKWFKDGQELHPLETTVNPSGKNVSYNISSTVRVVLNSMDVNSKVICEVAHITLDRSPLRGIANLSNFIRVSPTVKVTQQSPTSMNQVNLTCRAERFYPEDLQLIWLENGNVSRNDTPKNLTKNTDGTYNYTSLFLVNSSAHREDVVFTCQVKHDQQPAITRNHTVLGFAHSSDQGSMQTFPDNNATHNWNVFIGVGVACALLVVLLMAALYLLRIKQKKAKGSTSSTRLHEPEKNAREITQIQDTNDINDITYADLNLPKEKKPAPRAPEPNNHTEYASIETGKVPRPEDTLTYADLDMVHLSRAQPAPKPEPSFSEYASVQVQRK
The experiment in a line: flow, CHO-muSIRPA.

The target in experiment [3] is human SIRPA-DAP12 chimera on BWZ NFAT-luciferase reporter cells (human, UniProt O43914 62-113, limits assumed). Kind of experiment: cell-based or functional assay.
The target of experiment [4] is T3, human SIRPβ1 Fc fusion antigen (human, UniProt O00241 30-371).
T3 construct: not shown: human IgG1 Fc
Kind of experiment: ForteBio IgG avid. In general terms: Biolayer interferometry detects binding as a change in optical thickness at a sensor tip.

Experiment [5] deals with T4, human SIRPA Fc fusion antigen (human, UniProt P78324 31-373).
T4 construct: heterologous signal peptide; not shown: human IgG1 Fc
The experiment in a line: ForteBio IgG avid.

For experiment [6], the target named is T2, mouse SIRPA overexpressed on CHO cells. The experiment in a line: flow, CHO-muSIRPA. This is another data set of the same source.
Protocol: as §1
A further experiment deals with T5, Human SIRPA D1 Fc (human, UniProt P78324 32-137).
T5 construct: not shown: human IgG1 Fc
The experiment in a line: ForteBio IgG avid.

Another experiment has as its target T6, Mouse SIRPA D1 Fc (mouse, UniProt P97797 32-150, limits assumed).
T6 sequence: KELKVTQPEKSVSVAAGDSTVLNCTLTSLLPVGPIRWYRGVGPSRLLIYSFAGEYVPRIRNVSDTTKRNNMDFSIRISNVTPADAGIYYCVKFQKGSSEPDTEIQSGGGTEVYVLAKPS
Kind of experiment: ForteBio IgG avid.

The next experiment concerns the target Human SIRPb D1 Fc (human, UniProt O00241 30-148, limits assumed). Kind of experiment: ForteBio IgG avid.
Experiment [7] concerns the target T7, biotinylated human SIRPA (monomer) (human, UniProt P78324 31-373, limits assumed, biotinylated).
T7 construct: monomer made by IdeS cleavage of a SIRPA Fc fusion; also called recombinant human SIRPA
The experiment in a line: MSD-SET, Fab, equilibrium.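 Note: solution equilibrium titration, free antigen captured on antibody-coated MSD plates and detected by electrochemiluminescence with labeled streptavidin, percent free antigen versus titrated antibody fit to quadratic model for KD.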
Protocol: Antibodies (20 nM in PBS) were coated onto standard bind MSD-ECL plates overnight at 4° C. or at room temperature for 30 min. Plates were then blocked with 1% BSA for 30 min with shaking at 700 rpm, followed by three washes with wash buffer (PBSF+0.05% Tween 20). SET samples were applied and incubated on the plates for 150s with shaking at 700 rpm followed by one wash. Antigen captured on a plate was detected with 250 ng/ml sulfotag-labeled streptavidin in PBSF by incubation on the plate for 3 min. The plates were washed three times with wash buffer and then read on the MSD Sector Imager 2400 instrument using 1× Read Buffer T with surfactant. The percent free antigen was plotted as a function of titrated antibody in Prism and fit to a quadratic equation to extract the KD. To improve throughput, liquid handling robots were used throughout MSD-SET experiments, including SET sample preparation.

Experiment [8] deals with human SIRPA D40A with C-terminal V5 tag on HEK-293T cells (human, UniProt P78324 31-504). Kind of experiment: flow cytometry, Fab on HEK-293T cells with the mutant. A general note: Flow cytometry measures light scatter and fluorescence of single cells or particles in a stream.
Protocol: (§2) Epitope mapping of anti-SIRPA antibodies was performed using an alanine-scanning library created by shotgun mutagenesis of the human SIRPA cDNA sequence.
(§3) Antibodies were digested to generate Fabs, after which cells were incubated with Fabs diluted in 10% normal goat serum (NGS) (Sigma-Aldrich, St. Louis, MO). Prior to library screening, primary Fab concentrations were determined using an independent immunofluorescence titration curve against cells expressing wild type SIRPA to ensure that signals were within the linear range of detection. Fabs were detected using 7.5 μg/ml AlexaFluor488-conjugated secondary antibody (Jackson ImmunoResearch Laboratories, Westgrove, PA) in 10% NGS. Cells were washed twice with PBS and resuspended in Cellstripper (Cellgro, Manassas, VA) with 0.1% BSA (Sigma-Aldrich, St. Louis, MO). In some cases, higher stringency conditions were used, including increased pH, increased temperature, and increased dissociation time. Mean cellular fluorescence was detected using the Intellicyt high throughput flow cytometer (HTFC, Intellicyt, Albuquerque, NM). Fab reactivities against each mutant clone were calculated relative to wild-type SIRPA protein reactivity by subtracting the signal from mock-transfected controls, and normalizing to the signal from wild-type SIRPA transfected controls.
The target of experiment [9] is human SIRPA W68A with C-terminal V5 tag on HEK-293T cells (human, UniProt P78324 31-504). Described as above.
Protocol: as §2, §3
The target in experiment [10] is human SIRPA R54A with C-terminal V5 tag on HEK-293T cells (human, UniProt P78324 31-504). Described as above.
Protocol: as §2, §3
Experiment [11] concerns the target T3, human SIRPβ1 Fc fusion antigen. The experiment in a line: ForteBio Fab monovalent.
Protocol: (§4) Briefly, ForteBio affinity measurements were performed by loading immunoglobulins (IgGs) on-line onto AHQ sensors. Sensors were equilibrated off-line in assay buffer for 30 min and then monitored on-line for 60 seconds for baseline establishment. For avid binding measurement, sensors with loaded IgGs were exposed to 100 nM antigen (human SIRPA or SIRPβ1 Fc fusion) for 3 min, afterwards they were transferred to assay buffer for 3 min for off-rate measurement. […] Monovalent binding measurements were obtained by loading human SIRPA Fc fusion antigens to AHQ sensor and followed by exposure to 100 nM anti-SIRPA antibody Fab.
(§5) Additional monovalent measurements were made by loading biotinylated human SIRPA monomer to SA sensor followed by exposure to 100 nM Fab in solution. Kinetics data were fit using a 1:1 binding model in the data analysis software provided by ForteBio.
In experiment [12] the target is T4, human SIRPA Fc fusion antigen. The experiment in a line: ForteBio Fab monovalent.
Protocol: as §4, §5

Substitutions are numbered along the chain they refer to.

T3 sequence (O00241 30-371 limits assumed): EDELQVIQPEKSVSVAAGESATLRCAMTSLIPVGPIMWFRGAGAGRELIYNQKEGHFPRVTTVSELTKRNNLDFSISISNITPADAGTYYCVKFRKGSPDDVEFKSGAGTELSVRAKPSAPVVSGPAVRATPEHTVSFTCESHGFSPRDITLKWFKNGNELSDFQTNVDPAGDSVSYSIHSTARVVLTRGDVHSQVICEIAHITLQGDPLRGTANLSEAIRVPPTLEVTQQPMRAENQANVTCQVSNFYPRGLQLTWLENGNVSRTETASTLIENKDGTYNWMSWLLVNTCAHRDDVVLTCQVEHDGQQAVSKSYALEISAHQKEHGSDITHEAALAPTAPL
Human SIRPb D1 Fc, sequence (O00241 30-148 limits assumed): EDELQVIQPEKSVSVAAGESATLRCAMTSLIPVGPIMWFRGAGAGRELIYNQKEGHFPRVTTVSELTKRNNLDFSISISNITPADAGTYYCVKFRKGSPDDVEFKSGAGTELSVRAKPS
Protocol for Human SIRPA D1 Fc: (§6) Briefly, ForteBio affinity measurements were performed by loading IgGs on-line onto AHQ sensors. Sensors were equilibrated off-line in assay buffer for 30 min and then monitored on-line for 60 seconds for baseline establishment. For avid binding measurement, sensors with loaded IgGs were exposed to 100 nM antigen (human SIRPA or SIRPβ1 Fc fusion) for 3 min, afterwards they were transferred to assay buffer for 3 min for off-rate measurement. Additional avid binding was determined by loading biotinylated SIRPA monomer on SA sensors and exposure to 100 nM IgG in solution. Monovalent binding measurements were obtained by loading human SIRPA or SIRPβ1 Fc fusion antigens to AHQ sensor and followed by exposure to 100 nM anti-SIRPA antibody Fab. Additional monovalent measurements were made by loading biotinylated human SIRPA or SIRPβ1 monomer to SA sensor followed by exposure to 100 nM Fab in solution. Kinetics data were fit using a 1:1 binding model in the data analysis software provided by ForteBio.
Protocol for Human SIRPb D1 Fc: as §6
Protocol for Mouse SIRPA D1 Fc: as §6

B1: SA-56 (antibody, V domains shown)
VH: EVQLVESGGGLVKPGGSLRLSCAASGFTFSSYSMNWVRQAPGKGLEWVSSISSSSSYIYYADSVKGRFTISRDNAKNSLYLQMNSLRAEDTAVYYCARGVETYSGPNWFDPWGQGTLVTVSS
VL: DIQMTQSPSSVSASVGDRVTITCRASQGISSWLAWYQQKPGKAPKLLIYAASSLQSGVPSRFSGSGSGTDFTLTISSLQPEDFATYYCQQAIYFPITFGGGTKVEIK
notes: IgG; also called SA-56 (parental)
As to B1, the “relative MFI” value turned out to be 128 fold over background in experiment [1] and 0.583 fold over background in experiment [6]. In addition, the binding result was “no binding (tested: 1 ug/ml)” in experiment [2], “no binding (tested: 100 nM)” in [4], “no binding (tested: 100 nM)” with Mouse SIRPA D1 Fc and “no binding (tested: 100 nM)” with Human SIRPb D1 Fc. Moreover, the “luminescence of BWZ-huSIRPA reporter cells with SA-56 and plate-bound CD47” value in [3] was around 10 fold over background. The figures for the Kd (in [5]; in the experiment with Human SIRPA D1 Fc) were 2.04 nM and 2.81 nM, respectively.

B2: SA-56-94 Fab (Fab, V domains shown)
VH: EVQLVESGGGVVQPGRSLRLSCAASGFTFSYYGMSWVRQAPGKGLEWVASIWVDGSNKYYADSVKGRFTISRDNSKNTLYLQMNSLRAEDTAVYYCAVGTETYSGPNWFDPWGQGTLVTVSS
VL: B1 VL
notes: papain Fab; also called SA-94
Take B2: the Kd worked out at 0.88 nM in experiment [7] and 3.43 nM in experiment [12]. Moreover, the “Binding Reactivity (% WT), mean” value was 0.2 % WT in experiment [8], 25.6 % WT in experiment [9] and 2.9 % WT in experiment [10]. The binding result in experiment [11] was “no binding (tested: 100 nM)”.

B3: SA-56-90 Fab (Fab, V domains shown)
VH: B2 VH with E1Q, F27S, Y31H, N84D, V98R, T100V
VL: B1 VL
notes: papain Fab; also called SA-90
As to B3, the Kd in experiment [7] was 0.17 nM; in experiment [12], 1.11 nM. Further, the entries for the “Binding Reactivity (% WT), mean” value in experiment [8], in experiment [9] and in experiment [10] were 0.4 % WT, 19.3 % WT and 1.7 % WT, respectively. Further, the binding result in [11] is on record as “no binding (tested: 100 nM)”.

Usually Kd stands for a measure of binding affinity in units of concentration. A higher Kd goes with weaker binding.
